Measurements from patent US20190241648A1 (STATEN BIOTECHNOLOGY B V, published 2019).
Ends that are not written are not given here.

Assays:
Test in all cases: peptide microarray
[1] = molecular target: T1, ApoC3 peptide … S48A (human, thioether (positions not given here); also: cyclic constrained)
T1 peptide: ARGWVTDGFASLK
From the text: (§1) Amino acids G41 and G46 were highly conserved; substitution of G41 by E, N or Q caused a decrease of spot intensities by ˜70% or higher, whereas exchange of G46 by N was hardly tolerated and resulting in 90% reduced spot intensities. […] Amino acid positions V43, D45 and K51 were also well conserved with a clear preference for the wild type amino acids and a certain tolerance particularly for conservative exchanges by Y, F and I (V43), A, E and K (D45) as well as by R (K51). […] Replacement of V43 by Y, however, increased spot intensity by two fold. Amino acid positions W42 and 48S were poorly conserved or even variable; both positions were susceptible for only a number of amino acid exchanges, and exchange by F, S and T (W42) or by E (S48) even caused a two- to three-fold increase of spot intensity. Amino acid positions A39 and R40 were variable.
(§2) Pre: staining of one of the ApoC3 peptide microarrays was done with the secondary antibody goat anti-human IgG (Fe) DyLight680 (1:5000) and control antibody mouse monoclonal anti-HA (12CA5) DyLight800 (1:2000) to investigate background interactions of the secondary antibody with the antigen-derived peptides that could interfere with the main assays. Subsequent incubation of other ApoC3 peptide microarrays with antibody samples was followed by staining with secondary and control antibodies as well as read-out at scanning intensities of 7/7 (red/green). The additional HA peptides framing the peptide arrays were stained as internal quality control to confirm the assay quality and the peptide microarray integrity.

[2] = molecular target: T2, ApoC3 peptide … S49A (human, not fully specified (bridges); also: cyclic constrained)
T2 peptide: ARGWVTDGFSALK
From the text: as §1, §2

[3] = molecular target: T3, ApoC3 peptide … W42D (human, not fully specified (bridges); also: cyclic constrained)
T3 peptide: ARGDVTDGFSSLK
From the text: as §1, §2

[4] = molecular target: T4, ApoC3 peptide … G41E (human, also: cyclic constrained)
T4 peptide: AREWVTDGFSSLK
From the text: as §1, §2

[5] = molecular target: ApoC3 peptide … S48E (human, cyclic constrained)
From the text: as §1, §2

[6] = molecular target: T5, ApoC3 peptide … S49G (human, cyclic constrained)
T5 peptide: ARGWVTDGFSGLK
From the text: as §1, §2

[7] = molecular target: T6, ApoC3 peptide … G41H (human, also: cyclic constrained)
T6 peptide: ARHWVTDGFSSLK
From the text: as §1, §2

[8] = molecular target: T7, ApoC3 peptide … T44I (human, not fully specified (bridges); also: cyclic constrained)
T7 peptide: ARGWVIDGFSSLK
From the text: as §1, §2

[9] = molecular target: T8, ApoC3 peptide … D45I (human, cyclic constrained)
T8 peptide: ARGWVTIGFSSLK
From the text: as §1, §2

[10] = molecular target: T9, ApoC3 peptide … G46K (human, not fully specified (bridges); also: cyclic constrained)
T9 peptide: ARGWVTDKFSSLK
From the text: as §1, §2

[11] = molecular target: T10, ApoC3 peptide … F47K (human, not fully specified (bridges); also: cyclic constrained)
T10 peptide: ARGWVTDGKSSLK
From the text: as §1, §2

[12] = molecular target: T11, ApoC3 peptide … L50K (human, not fully specified; cyclic constrained)
T11 peptide: ARGWVTDGFSSKK
From the text: as §1, §2

[13] = molecular target: T12, ApoC3 peptide … A39M (human, cyclic constrained)
T12 peptide: MRGWVTDGFSSLK
From the text: as §1, §2

[14] = molecular target: T13, ApoC3 peptide … G41M (human, also: cyclic constrained)
T13 peptide: ARMWVTDGFSSLK
From the text: as §1, §2

[15] = molecular target: T14, ApoC3 peptide … R40N (human, not fully specified (bridges); also: cyclic constrained)
T14 peptide: ANGWVTDGFSSLK
From the text: as §1, §2

[16] = molecular target: T15, ApoC3 peptide … G41N (human, also: cyclic constrained)
T15 peptide: ARNWVTDGFSSLK
From the text: as §1, §2

[17] = molecular target: T16, ApoC3 peptide … V43N (human, not fully specified; cyclic constrained)
T16 peptide: ARGWNTDGFSSLK
From the text: as §1, §2

[18] = molecular target: T17, ApoC3 peptide … F47N (human, not fully specified (bridges); also: cyclic constrained)
T17 peptide: ARGWVTDGNSSLK
From the text: as §1, §2

[19] = molecular target: T18, ApoC3 peptide … L50N (human, not fully specified; cyclic constrained)
T18 peptide: ARGWVTDGFSSNK
From the text: as §1, §2

[20] = molecular target: T19, ApoC3 peptide … W42P (human, not fully specified (bridges); also: cyclic constrained)
T19 peptide: ARGPVTDGFSSLK
From the text: as §1, §2

[21] = molecular target: T20, ApoC3 peptide … D45P (human, cyclic constrained)
T20 peptide: ARGWVTPGFSSLK
From the text: as §1, §2

[22] = molecular target: T21, ApoC3 peptide … R40Q (human, not fully specified (bridges); also: cyclic constrained)
T21 peptide: AQGWVTDGFSSLK
From the text: as §1, §2

[23] = molecular target: ApoC3 peptide … S48Q (human, cyclic constrained)
From the text: as §1, §2

[24] = molecular target: T22, ApoC3 peptide … A39S (human, not fully specified (bridges); also: cyclic constrained)
T22 peptide: SRGWVTDGFSSLK
From the text: as §1, §2

[25] = molecular target: T23, ApoC3 peptide … G41S (human, also: cyclic constrained)
T23 peptide: ARSWVTDGFSSLK
From the text: as §1, §2

[26] = molecular target: T24, ApoC3 peptide … S49T (human, not fully specified (bridges); also: cyclic constrained)
T24 peptide: ARGWVTDGFSTLK
From the text: as §1, §2

[27] = molecular target: T25, ApoC3 peptide … K51T (human, not fully specified; cyclic constrained)
T25 peptide: ARGWVTDGFSSLT
From the text: as §1, §2

[28] = molecular target: T26, ApoC3 peptide … W42V (human, not fully specified (bridges); also: cyclic constrained)
T26 peptide: ARGVVTDGFSSLK
From the text: as §1, §2

[29] = molecular target: T27, ApoC3 peptide … D45W (human, cyclic constrained)
T27 peptide: ARGWVTWGFSSLK
From the text: as §1, §2

[30] = molecular target: T28, ApoC3 peptide … F47W (human, also: cyclic constrained)
T28 peptide: ARGWVTDGWSSLK
From the text: as §1, §2

[31] = molecular target: T29, ApoC3 peptide … G41Y (human, also: cyclic constrained)
T29 peptide: ARYWVTDGFSSLK
From the text: as §1, §2

B1: anti-ApoC3 antibody 14C7 (antibody, V domains shown)
VH: QVQVQESGPGLVKPSQTLSLTCTVSGGSITTNSYYWSWIRQPPGKGLEWMGAIDYSGDTYYSPSLKSRTSISRDTSKNQFTLQLTSVTPEDTAVYYCVSRIPTGEYWGQGTQVTVSS
VL: QTVVTQEPSLSVSPGGTVTLTCGLNSGSVTSSNYPDWYQQTPGQAPRLLIYNTNSRHSGVPSRFSGSISGNKAALTITGAQPEDEADYYCALYMGSDSVVFGGGTHLTVL
notes: it was detected with goat anti-human IgG (Fc); also called mAb 14C7; llama antibody 14C7
Q: Which results are given for B1?
A: % of binding to wild-type peptide [1]: 75.5%; % of binding to wild-type peptide [2]: 2.43%; % of binding to wild-type peptide [3]: 108%; % of binding to wild-type peptide [4]: 28.1%; % of binding to wild-type peptide [5]: 290%; % of binding to wild-type peptide [6]: 0%; % of binding to wild-type peptide [7]: 23.1%; % of binding to wild-type peptide [8]: 1.86%; % of binding to wild-type peptide [9]: 2.04%; % of binding to wild-type peptide [10]: 0.24%; % of binding to wild-type peptide [11]: 0.12%; % of binding to wild-type peptide [12]: 0.74%; % of binding to wild-type peptide [13]: 90.7%; % of binding to wild-type peptide [14]: 18.7%; % of binding to wild-type peptide [15]: 64.8%; % of binding to wild-type peptide [16]: 27.5%; % of binding to wild-type peptide [17]: 1.36%; % of binding to wild-type peptide [18]: 0.06%; % of binding to wild-type peptide [19]: 0%; % of binding to wild-type peptide [20]: 18.6%; % of binding to wild-type peptide [21]: 0%; % of binding to wild-type peptide [22]: 85.8%; % of binding to wild-type peptide [23]: 46.8%; % of binding to wild-type peptide [24]: 81.4%; % of binding to wild-type peptide [25]: 18.7%; % of binding to wild-type peptide [26]: 6.21%; % of binding to wild-type peptide [27]: 17.5%; % of binding to wild-type peptide [28]: 48.3%; % of binding to wild-type peptide [29]: 0.06%; % of binding to wild-type peptide [30]: 1.57%; % of binding to wild-type peptide [31]: 6.27%
